Key:
[1] = system: T1, generic peptide substrate RARTLSFAEPG
T1 sequence: RARTLSFAEPG

[2] = system: T2, standard peptide substrate MHRQETVDCLK
T2 sequence: MHRQETVDCLK

alpha-isoform of calmodulin-dependent protein kinase II (CaMKII)
Km [1]: 300 µM
Km [2]: 60 µM

Reference: US7727950
